Assay results reported in the Immune Epitope Database (IEDB).

Assays:
HLA-A*02:50 = assay: IEDB peptide-MHC binding, purified MHC/competitive/fluorescence; filed as Kd, often an IC50 or EC50 that approximates it; ≥ and ≤ were set here for values at or beyond the usual limits of such assays
HLA-B*08:01 [1] = assay: IEDB peptide-MHC binding, purified MHC/direct/fluorescence; filed as Kd, often an IC50 or EC50 that approximates it; ≥ and ≤ were set here for values at or beyond the usual limits of such assays
HLA-A*69:01 = assay: as above
HLA-A*02:01 = assay: as above
HLA-A*11:01 = assay: as above
HLA-A*26:01 = assay: as above
HLA-B*27:05 [2] = assay: as above
HLA-A*03:01 = assay: as above
HLA-A*01:01 = assay: as above
HLA-B*44:02 = assay: as above
HLA-B*58:01 = assay: as above
HLA-B*40:01 = assay: as above
HLA-B*15:01 = assay: as above
HLA-B*07:02 = assay: as above
HLA-A*31:01 = assay: as above
HLA-B*15:02 [3] = assay: IEDB peptide-MHC binding, purified MHC/competitive/fluorescence; filed as Kd, often an IC50 or EC50 that approximates it; ≥ and ≤ were set here for values at or beyond the usual limits of such assays
HLA-B*15:02 [4] = assay: IEDB peptide-MHC binding, purified MHC/direct/fluorescence; filed as Kd, often an IC50 or EC50 that approximates it; ≥ and ≤ were set here for values at or beyond the usual limits of such assays
HLA-B*46:01 = assay: as above
HLA-B*35:01 = assay: as above
HLA-B*51:01 = assay: as above
HLA-C*12:03 = assay: as above; conditions: source organism: Coxiella burnetii RSA 493
HLA-B*27:03 = assay: as above
HLA-B*39:01 = assay: as above
HLA-B*18:01 = assay: as above
HLA-B*08:01 [5] = assay: IEDB peptide-MHC binding, purified MHC/competitive/fluorescence; filed as Kd, often an IC50 or EC50 that approximates it; ≥ and ≤ were set here for values at or beyond the usual limits of such assays; conditions: source organism: Influenza A virus H3N2
HLA-B*27:05 [6] = assay: as above; conditions: source organism: Influenza A virus H3N2
HLA-A*26:02 = assay: as above; conditions: source organism: Influenza A virus H3N2
HLA-A*02:03 [7] = assay: as above; conditions: source organism: Influenza A virus H3N2
HLA-B*15:17 = assay: IEDB peptide-MHC binding, purified MHC/direct/fluorescence; filed as Kd, often an IC50 or EC50 that approximates it; ≥ and ≤ were set here for values at or beyond the usual limits of such assays; conditions: source organism: H9N2 subtype Influenza A virus (A/swine/Korea/S83/2004(H9N2))
HLA-B*57:01 = assay: as above
HLA-A*68:02 = assay: as above; conditions: source organism: H9N2 subtype Influenza A virus (A/swine/Korea/S83/2004(H9N2))
HLA-B*48:01 = assay: as above; conditions: source organism: H9N2 subtype Influenza A virus (A/swine/Korea/S83/2004(H9N2))
HLA-A*24:02 = assay: as above; conditions: source organism: Escherichia coli O157:H7
HLA-C*03:03 = assay: as above; conditions: source organism: Escherichia coli O157:H7 str. EDL933
HLA-A*02:16 = assay: as above
HLA-A*02:03 [8] = assay: as above
HLA-A*02:19 = assay: as above
HLA-A*02:12 = assay: as above
HLA-A*02:11 = assay: as above; conditions: source organism: Yersinia pestis CA88-4125
[9] = source organism: Giardia lamblia ATCC 50803
[10] = source organism: Vibrio vulnificus
[11] = source organism: Listeria monocytogenes
[12] = source organism: Listeria monocytogenes serotype 4b str. H7858
[13] = source organism: Coxiella burnetii Q321
[14] = source organism: H9N2 subtype Influenza A virus (A/swine/Korea/S83/2004(H9N2))
[15] = source organism: Escherichia coli O157:H7
[16] = source organism: Mycobacterium tuberculosis
[17] = source organism: Yersinia enterocolitica subsp. enterocolitica 8081
[18] = source organism: Yersinia pestis CA88-4125

Measured: Kd

LLPYPIAGC
4.2 µM: HLA-A*69:01; [9]
0.0235 µM: HLA-A*02:50; source organism: Giardia intestinalis ATCC 50581
≥ 20 µM: HLA-B*08:01 [1]; [9] | HLA-A*11:01; [9] | HLA-A*26:01; [9] | HLA-B*27:05 [2]; [9] | HLA-A*03:01; [9] | HLA-A*01:01; [9] | HLA-B*44:02; [9] | HLA-B*58:01; [9] | HLA-B*40:01; [9] | HLA-B*15:01; [9] | HLA-B*07:02; [9] | HLA-A*31:01; [9]
5.1 µM: HLA-A*02:01; [9]

LQLARDGMF
≥ 20 µM: HLA-B*15:02 [3]; source organism: Brucella suis ATCC 23445

IQTHCEVGY
0.94 µM: HLA-B*35:01; [10]
≥ 20 µM: HLA-B*08:01 [1]; [10] | HLA-A*69:01; [10] | HLA-A*02:01; [10] | HLA-A*11:01; [10] | HLA-A*26:01; [10] | HLA-B*27:05 [2]; [10] | HLA-B*15:02 [4]; [10] | HLA-B*46:01; [10] | HLA-A*03:01; [10] | HLA-A*01:01; [10] | HLA-B*44:02; [10] | HLA-B*58:01; [10] | HLA-B*40:01; [10] | HLA-B*07:02; [10] | HLA-A*31:01; [10]
0.285 µM: HLA-B*15:01; [10]

LMKAPGTYH
0.0668 µM: HLA-B*15:01; [11]
4.83 µM: HLA-B*46:01; [11]
0.258 µM: HLA-B*15:02 [4]; [11]
≥ 20 µM: HLA-B*35:01; [12] | HLA-B*07:02; [12]

IAFTRLFTV
3.24 µM: HLA-B*51:01; [13]
≤ 0.001 µM: HLA-C*12:03
≥ 20 µM: HLA-A*26:01; [13] | HLA-B*46:01; [13] | HLA-A*03:01; [13] | HLA-B*15:01; [13] | HLA-B*27:03; [13] | HLA-B*39:01; [13] | HLA-B*18:01; [13]

LLRMFDHPF
0.0209 µM: HLA-B*15:02 [3]; source organism: Vibrio vulnificus YJ016

FQKDAKVLF
≥ 20 µM: HLA-B*08:01 [5] | HLA-A*26:02 | HLA-A*02:03 [7] | HLA-B*15:17 | HLA-A*69:01; [14] | HLA-B*57:01; [14] | HLA-A*68:02 | HLA-A*02:01; [14] | HLA-A*11:01; [14] | HLA-B*46:01; [14] | HLA-A*01:01; [14] | HLA-B*58:01; [14] | HLA-B*39:01; source organism: Influenza A virus(A/swine/Shandong/fZC/2003(H9N2)) | HLA-B*07:02; [14] | HLA-A*31:01; [14]
0.116 µM: HLA-B*15:01; [14]
1.72 µM: HLA-B*15:02 [4]; [14]
0.99 µM: HLA-B*48:01
3.34 µM: HLA-B*27:05 [6]

YLFQWNDNV
0.0036 µM: HLA-A*69:01; [15]
0.0021 µM: HLA-A*02:01; [15]
≤ 0.0001 µM: HLA-A*02:50; source organism: Escherichia coli O157:H7 str. EDL933
≥ 20 µM: HLA-A*24:02 | HLA-A*11:01; [15] | HLA-B*27:05 [2]; [15] | HLA-A*03:01; [15] | HLA-A*01:01; [15] | HLA-B*44:02; [15] | HLA-C*03:03 | HLA-B*58:01; [15] | HLA-B*40:01; [15] | HLA-B*18:01; [15] | HLA-B*07:02; [15]
1.71 µM: HLA-B*15:01; [15]

LLLRPFWPA
0.0091 µM: HLA-A*02:50; [16]
0.113 µM: HLA-A*02:01; [16]
0.0303 µM: HLA-A*69:01; [16]
0.01 µM: HLA-A*02:16; [16]

LAYLAGWII
1.39 µM: HLA-B*51:01; [17]
≥ 20 µM: HLA-A*02:16; [17] | HLA-A*02:01; [17] | HLA-A*26:01; [17] | HLA-B*46:01; [17] | HLA-A*03:01; [17] | HLA-A*02:03 [8]; [17] | HLA-B*15:01; [17] | HLA-A*02:19; [17] | HLA-B*27:03; [17] | HLA-B*39:01; [17] | HLA-B*18:01; [17] | HLA-A*02:12; [17]

KLLARFLFE
≥ 20 µM: HLA-A*02:16; [18] | HLA-B*57:01; [18] | HLA-A*02:01; [18] | HLA-A*26:01; [18] | HLA-B*51:01; [18] | HLA-B*46:01; [18] | HLA-A*03:01; [18] | HLA-A*02:11 | HLA-A*02:03 [8]; [18] | HLA-B*15:01; [18] | HLA-A*02:19; [18] | HLA-B*27:03; [18] | HLA-B*39:01; [18] | HLA-B*18:01; [18] | HLA-A*02:12; [18]
